Among the data in a protein production outcome set (Wang et al. 2014) are protein production values, retold here.

This series in a line: label from the status in PepcDB records.
“MDGSPARPVPLVPDAAPAAPGRGRLAALTLLTLGFFAANSLLARAALRPGLADPATFTAIRLASGAAALGGLALASRRARPRGGSAGSALALFAYAAAFSLAYRRIDAGPGAFLLFFAVQASMIGWSVLRGARPTRRQWAGLAVALAGLGWLTLPGAHAPDARGAALMLAAGVAWGAYTLRGRGVRDPAGATAANFALAVPLALCLVIASAGTLHLTARGAALAAASGAVASGVGYVLWYTVVPALGAARAAAVQLAVPAMVPLAAAGLLGEAITPRLLAAGTAILAGVALAIAPAARGGAFTRALSSRAGSAVERPPR”: the protein production entry is reported as “failed”.
Take “MSQRVSPTLIGLFVVGALALGVVGVGAFGSGQFFEQRTTFISYFDESVNGLDVGAPVKFKGVPIGEVTDINLRVDLENETFQVPVQYAINLDPVTDTTGARLNLDDPTLLRDQIEDGLRAQLQLESIVTGKLYVELTYISDPDSAVYAQGPPSRLSIPTELSPLAKLGEGASGLVTNLRQFDVTQINENLVTFLVNANDKLEALDAEAINRSALSTIESVRKVVESKEVRTALQDMPKATERLRATIKDAQALIQRLDRGVEPTADELEKTSRQLRATLKRMRRTMDEVDQTLSPNSGIGYQMNEALSNLSEATEALRVLVQSLERNPSMFLRGREEPPPSNQQ”: the protein production result was “failed”.
As to “MKNDLFTEIIGQHTAKLLLTEAIERNQIAPAYLFSSEVEGVGKGKIALAFANAILSRGSRSAMAKHLPPPKGDAQGTASAGESKHLDILQIKPTYTENTSQQKSVPAIRVEQMREVIEFLSTSAVEGKQKVVIIYEADMLNPTAANKLLKTLEEPKTGTFILISSYPQKLLPTIKSRCQIIPFQRLTDEEVISVLKDQQIEATEKILAISSGSPGQAIANIKMLASISQEITKELEVPPDDILKALSLSNSISSWNHQTQLWLLTYLQYNWWQKLKSTKLLAKFTQARKQLLHHVTPRSVWDSLLLP”, the protein production entry is “failed”.
In the case of “MLSTMQPTLATNYTTIPCYQLCYQHYATNLAPIIRSTGSMILNYAIIRLSLQQNLCYRKTCVRDTAQYDPPCNKIYTTGLCCSRTYKTLQAFFLDMSETPQKLREEAVKYFNETLDLMQKGENAEALESLRKAESSAQKAEDGPILFHILKVRGQLLQSLDMLEEALETYAFSLIMSEKLLSEDPENKLYTDTLHLNLNNLGNLGNAFQRMGNFPSSKQAYEIGIEICQNLLNSYPENEFYRMYAGNTLNNLGELLFTMGEPEEAKEKYEEALKTYSLLLKNSPEKPEYLSDTAMTLNNLGNLYSEKGQEAEAKENFEKALEILKKRSEKEPGNEKLREEIRITQEKLEAI”, the protein production result is given as “failed”.
In the case of “MWSIFRKEIAVFLNSLIAYLVILVFLTFIGVFMWVLPASSILDYGYAEMDTLFSYGPLAFLLLIPAITMRSFAEEKKDGTIELLLTKPLSDWQLLLGKYLSACTLVALALIPTVLYYISVYQLGKPVG”, the protein production result was “failed”.
With “MENKRAIIAVVLSFIVLVGWGYLSEYMGWTPKSVPATEQKTAASAPAPSVVTSAPEAVTPAPAFSPSTGHEVTVTTPLYKAVLHSGGGVLRQFMLSRYHMGIDRDAAPVNLIESSAIRVAPLGLLVNGQPSWNTGQWAFEGGDLNLADGQTGTLRFVGSVDGLRVVRELEFHADSYLVTEKLHLAPEGDAPRTARVGFTLGTTSLTPGESQYNLTRVAWFADGSFSEKSSTGDLEKGVLIDGSIDWAGVMSNYFLAAVAPKDTRAVLKGKLEGGVYRVAVERPDQMVNPGNSDVIVCNYWFGPKERDLLNAAPNNLGKAIDLGWFGFIARPLVTLLDFFYKYVGNYGTAIILLTILIKLVFWPLSHKSYKSMEQMKKLQPMLAKVREKHADDREKMNEEMMRLYKTYKVNPAGGCLPMLVQIPVFFGLYQALLNAIELRHAPFIAHVPFTDIVWLADLSAKDPFYVTPLVMGATMFLQQKLTPPAGDPTQAKVMMFMPVVFTFLFLNFPSGLVVYWLCNNVLSIAQQWWILRKA”, the protein production result is on record as “failed”.
On to “MLQSINQLNPDIVVITGDLTENGFSAEYDGVKMFIDRIECKNRVLVPGNHDSKNAGYLHFEDLFENRFQTRNLGNMTIVGADSSQPDIDDGHLGRENYGWIKEAFSGENFKVFALHHHLVPIPLAGRENTVLVDAGDVLDLLNKCRVNLVLCGHCHIPHVWNLNNMLVVNAGTFCSSKTRGKTTQCFNLIQAENSEKNGNGESEKIEDGGWKVRVSRVFPQGNIEFITETVMLEHHHHHH”, for which the protein production result is “failed”.
In the case of “ADNNKWKPLFGKNLENANYNPEVWSETDGVLGAVKDESIWTKDEYENFELDLDFKTDVGTNSGVVVYCTDTKDWIPNSVEIQIADDHCEKWGNGKPYEKCGAIYGHLGAVQDKVVKKPGEWNHMRIKCAGQHIMVILNGKKVTEMDMSKWTSGTKNPDGSDIPSWLPKPFAELPTKGFIGLQGKHGDSLIWFRNIKIRSL” it was “not failed”.
The value for “MSEPIDILIAGAGIGGLSCALALHQAGIGKVTLLESSSEIRPLGVGINIQPAAVEALAELGLGPALAATAIPTHELRYIDQSGATVWSEPRGVEAGNAYPQYSIHRGELQMILLAAVRERLGQQAVRTGLGVERIEERDGRVLIGARDGHGKPQALGADVLVGADGIHSAVRAHLHPDQRPLSHGGITMWRGVTEFDRFLDGKTMIVANDEHWSRLVAYPISARHAAEGKSLVNWVCMVPSAAVGQLDNEADWNRDGRLEDVLPFFADWDLGWFDIRDLLTRNQLILQYPMVDRDPLPHWGRGRITLLGDAAHLMYPMGANGASQAILDGIELAAALARNADVAAALREYEEARRPTANKIILANREREKEEWAAASRPKTEKSAALEAITGSYRNQVERPRLEHHHHHH” was “not failed”; that for “MRICLFLCLCLCMASPALAQVAVFPALSGKTDAQTLVVYSSLDEPLATPMIEGFQKANPDIAVHYEDMLTGEIYDRIVKETDAGKKTADFAFSSAMDLQVKLSNDGYAQRSDLAMSARWPAWANWRNTAYALTFEPAVFVYHKPSFTTEKPPATRAEFVDYLERHAKEVHGRIATYDIERSGVGFLFMSRDQEQFGDIWSVIKAMGAAGVKVYSTSSAILERVSDGRFVLGYNILGSYAADWASRHPDVGIVLPKDYTVVMSRIGLVPEAAANPELGRRYLEFFMSKEGQTIMARQLQIPAVSPEVAGENTANTMQAIHGAQLRPVPVSPGLMVYLDQVKRSRLIERWNEALRSQ” was “failed”; that for “MIVPGGFPAPVTGSAVAASPPLPTVRLLSLDAHGRVLDWINWQDAACLYARDAVSWTLGEPCMQIHGGVSRLTGERSVLELHPIIAARGHARSRALDPTPTLTNTALFARDSQLCMYCGQHFSRPHLTRDHVMPVSKGGRDSWENVVTACFQCNSRKANRTPQQAHMPLLAVPYRPSWIEHLILSNRNILSDQMAFLRAQLPKRSKLSLLEHHHHHH” was “failed”.
In the case of “MVRVDQNLFNEVMYLLDELSQDITVPKNVRKVAQDSKAKLSQENESLDLRCATVLSMLDEMANDPNVPAHGRTDLYTIISKLEALSKS” it was “not failed”; in that of “MSSDAVSKYTPGIYRTSIRLNNNTFDVEVTVDQDQIQSIHLANLSESTSAMFPLVEPVLDSLSSQIYSGQSLDDLEYSSDQKYTALMLIHAIDEAVTKAEADLEHHHHHH”, “not failed”; in that of “MVESKRTWKEKVHVESQVEERLRKNLTLKSREATKLQKKALKTTKKEFKLSKKNYKQSLKKHKLTLKTGKEPLSINHLLDKKKFVEQKKRKKAQKIAYKRTKKVDETRVVNQVKRETKEGLKREATQKVRTTLTQEDTLNEAMTLYEKTQQAKFNMRTALKTGKTVKNLSVKTAKDTYGLGNRLFNFSRGRGFQRTPKDFTLKKQLMKQLRNRAMRFKAAKEAKKAEQGIGLIRSFFNGQKTLGKVAALILKNPISWVVLLVLFLVFLLSGVASSTQKPAIVQEEEDLTASWTYFTKLDAQHTDDNNLFYSNIDDVLFYMNYRYDDFKLLDMDSTGTKNFETILSELWTALNGKKPDYQLKTMQSLETDKKSSYFIEEEQAKHYQEIKKELGYQTLDDLLSFPVKTDALIVNKRYGYDKSKEKLTLYKGIDVLIEDNQPFHSPMNGQIVSVPDTETLVIEKEKVARLTIRGVNTLRLTKGMDVEEGTFLGNTKNSTVTFQYEKYKKETKDWFFVNPAFYFPRVTYTQTTLLGSAEFSPGASVEKRAQAVYDYLSKKGYTKEGISAILGNFSVESGINPKRAEGDYLNPPVGAHGNSWDEPSWLAMGGPQIYGGRFPNILHRGLGLGQWTDTADGGRRHTLLLDYAKGKNKKWYDLQLQLDFIFDGDAPGSRTAADNVARSKVAATIPELTTYYLTVWEGNPGDKLGERIQAAQNWFTFFSRSGTPIGGSGSEVFAQYKEKMQPLPTDRETKAGQGWPGNAYAPGNCTWYVFNRFAQLGKSIYPTMGNANQWVHNYSQTPGATLESAPKKGDAVIFTNGVAGSSTQYGHVAYVEHVNSDGSFVISEMNVSGEYSMNWRVLKKEAGEYFMRLN”, “failed”.
For “MDISMKQSKRNLWWSVCAGLLFCSWGCSSQVSDKPVTLETLLDEMVSVEEQALYPVPSYTCRQESSYDRASVSPDSAGWFANSDGFGIKRVDTVAGRIEKVMFDEVGPGAITRIWITTIDKRGTWRFYFDGSDQPGWIIPAYDLMRINVPGLGKGMLQAHTSYTPEGKGGNTLFLPIPYARGCKVTFEDEPGVNPTPKYYHINFRKYPEGTQVETFSKEVVERAAQKIAEVDNRLLQPVAGRKGEILREEKSILPSDSLVIPLPAGENAVYEVKFNIRIDNPEQYAQLMRELVFSAGFDGKQTVWVPLSDFSGGGMGAPKVDSWYLTSDGKGNISSRWLMPYQKDGVLKVLNLSSRSVAATMEVNVAPLKWNKDRSLYFYASWRQENGIYIHDKPEEADQCVEWNFATLKGRGVYKGDLLSLYNHAPLWYGEGDEKIWVDDDTFPSHFGTGTEDYYNSSWAPVVPFYTPFGGAPRADLESSHGYNAFYRTRHLDGIPFNKSFKFDIEMLGWKRGEADYATTIYWYGDPEAQVFGTSGIEEARRQLLPAVEASADLEHHHHHH”, the protein production entry is “not failed”.
On to “MVVLMLCAALLVIVGCPETALGKGLRRWLVDWPAKVLAGLTPARLVLLLALLAVSTLVVVLFEVEGAILLGMALPEVAVWFMAFDVAVFIDLFAAIALAANGARLKGLGDRIKALPRRFGRGLVARVRRSGQGRQGGRRFRRPGSGATKSEDGDAGWSGAAQPGALAWA”, for which the protein production result is on record as “failed”.
For the sequence “CTRAVYLGPDRMVVTGRTMDWKEDIMSNIYVFPRGMQRAGHNKEKTVNWTSKYGSVIATGYDIGTCDGMNEKGLVASLLFLPESVYSLPGDTRPAMGISIWTQYVLDNFATVREAVDEMKKETFRIDAPRMPNGGPESTLHMAITDETGNTAVIEYLDGKLSIHEGKEYQVMTNSPRYELQLAVNDYWKEVGGLQMLPGTNRSSDRFVRASFYIHAIPQTADAKIAVPSVLSVMRNVSVPFGINTPEKPHISSTRWRSVSDQKNKVYYFESTLTPNLFWLDLKKIDFSPKAGVKKLSLTKGEIYAGDAVKDLKDSQS”, the protein production result is listed as “not failed”.
For the sequence “MKQHILVLEDANQRRTIILDEQQYSIGRHSGTSIQIHSRQASRHHATLMRKTNSKTNEECFWIIDGDLEGNKSQNGVFVNGEKRLIHELKNGDLINFGCSINASYHVTGEGFGESSSQPVEILPQTSPYNEAVSAQIASSYNTREGVDLLAGSNDETFHEQSYLDTATDLPNQTLFLEYLNIALSNARRHHAQVGVLLCQINNWSDLKRKRGDAVANAFLQEAGQKLKSNLRNGDIVSRWDKDEFIFLVSKVQDTSSLLGIAQRLMKPVLAPVTAGGRPFQPEITYGVALYPVDGEQVNDLIGHIRENLQQLLPQPTNPGSGEADDHIETAVDVRIGAPQPVPGLSDSDQKRLAIVEKRLLRALEQHELELYYQPQINWRKKTIEAMEAFIRWQHPQKGLLPPGQFLPWSDQTEFMVPLTRWILETACQQNVLWQQQLQTPFLVSVNISEKQFYHPLLKNMVMEAIAMAKMETHYLELEIQESTVMKDFGLAQQIITNLHNYGVGFSLDDFGTDYMSLRCLQDLPFQKLKIDKSLTAQLLEQTDNVPNLTMMETLINLGKTFNLKVVAEGVEQEEQINILDSLNCFFMQGYCFSEPLNILAANSFLHKYIAGN”, the protein production entry is listed as “failed”.
